B1: AB-010693 (antibody, V domains shown)
VH: QVQLQQWGAGLLKPSETLSLTCAVYGGSFSGYYWSWIRQPPGKGLEWIGEINHRGSINYNNYNPSLKSRVTISVDTSKNQFSLKLSSVTAADTAVYYCAKPLRPHCINGVCYSGDAFDIWGQGTMVTVAS
VL: SYVLTQPPSVSVAPGQTARITCGGNNIGYKNVHWYQQKPGQAPVLVVYDDSDRPSGIPERFSGSNSGNTATLTISRVEAGDEADYYCQVWDSSSDHVVFGGGTKLTVL
B2: AB-010667 (antibody, V domains shown)
VH: QVQLQQWGAGLLKPSETLSLTCAVYGGSFSDYYWSWIRQPPGKGLEWIGEINHRGSINYNNYNPSLKSRVTISVDTSKNQFSLKLSSVTAADTAVYYCAKPLRPHCTNGVCYSGDAFDIWGQGTMVTVAS
VL: SYVLTQPPSVSVAPGQTARITCGGNNIGYKNVHWYQQKPGQAPVLVVYDDSDRPSGIPEQFSGSNSGNTATLTISRVEAGDEADYYCQVWDHSSDHVVFGGGTKLTVL
B3: AB-010670 (antibody, V domains shown)
VH: QVQLQQWGAGLLKPSETLSLTCAVYGGSFSDYYWSWIRQPPGKGLEWIGEINHRGSINYNNYNPSLKSRVTISVDTSKNQFSLKLSSVTAADTAVYYCAKPLRPHCINGVCYSGDAFDIWGQGTMVTVAS
VL: SYVLTQPPSVSVAPGQTARITCGGNNIGSKNVHWYQQKPGQAPVLVVYDDSDRPSGIPEQFSGSNSGNTATLTISRVEAGDEADYYCQVWDHSSDHVVFGGGTKLTVL
B4: AB-010697 (antibody, V domains shown)
VH: QVQLQQWGAGLLKPSETLSLTCAVYGGSFSGYYWSWIRQPPGKGLEWIGEINHRGSINYNNYNPSLKSRVTISVDTSKNQFSLKLSSVTAADTAVYYCAKPLRPHCTNGVCYSGDAFDIWGQGTMVTVAS
VL: SYVLTQPPSVSVAPGQTARITCGGNNIGSMNVHWYQQKPGQAPVLVVYDDSDRPSGIPERFSGSNSGNTATLTISRVEAGDEADYYCQVWDHSSDHVVFGGGTKLTVL
B5: AB-010662 (antibody, V domains shown)
VH: QVQLQQWGAGLLKPSETLSLTCAVYGGSFSDYYWSWIRQPPGKGLEWIGEINHRGSINYNNYNPSLKSRVTISVDTSKNQFSLKLSSVTAADTAVYYCAKPLRPHCTNGVCYSGDAFDIWGQGTMVTVAS
VL: SYVLTQPPSVSVAPGQTARITCRGNNIGYKNVHWYQQKPGQAPVLVVYDDSDRPSGIPEQFSGSNSGNTATLTISRVEAGDEADYYCQVWDSSSDHVVFGGGTKLTVL
B6: AB-010663 (antibody, V domains shown)
VH: QVQLQQWGAGLLKPSETLSLTCAVYGGSFSDYYWSWIRQPPGKGLEWIGEINHRGSINYNNYNPSLKSRVTISVDTSKNQFSLKLSSVTAADTAVYYCAKPLRPHCTNGVCYSGDAFDIWGQGTMVTVAS
VL: SYVLTQPPSVSVAPGQTARITCRGNNIGSMNVHWYQQKPGQAPVLVVYDDSDRPSGIPEQFSGSNSGNTATLTISRVEAGDEADYYCQVWDSSSDHVVFGGGTKLTVL
B7: AB-010665 (antibody, V domains shown)
VH: QVQLQQWGAGLLKPSETLSLTCAVYGGSFSDYYWSWIRQPPGKGLEWIGEINHRGSINYNNYNPSLKSRVTISVDTSKNQFSLKLSSVTAADTAVYYCAKPLRPHCINGVCYSGDAFDIWGQGTMVTVAS
VL: SYVLTQPPSVSVAPGQTARITCGGNNIGYKNVHWYQQKPGQAPVLVVYDDSDRPSGIPEQFSGSNSGNTATLTISRVEAGDEADYYCQVWDSSSDHVVFGGGTKLTVL
B8: AB-010661 (antibody, V domains shown)
VH: QVQLQQWGAGLLKPSETLSLTCAVYGGSFSDYYWSWIRQPPGKGLEWIGEINHRGSINYNNYNPSLKSRVTISVDTSKNQFSLKLSSVTAADTAVYYCAKPLRPHCINGVCYSGDAFDIWGQGTMVTVAS
VL: SYVLTQPPSVSVAPGQTARITCRGNNIGSKNVHWYQQKPGQAPVLVVYDDSDRPSGIPEQFSGSNSGNTATLTISRVEAGDEADYYCQVWDSSSDHVVFGGGTKLTVL
B9: AB-010668 (antibody, V domains shown)
VH: QVQLQQWGAGLLKPSETLSLTCAVYGGSFSDYYWSWIRQPPGKGLEWIGEINHRGSINYNNYNPSLKSRVTISVDTSKNQFSLKLSSVTAADTAVYYCAKPLRPHCINGVCYSGDAFDIWGQGTMVTVAS
VL: SYVLTQPPSVSVAPGQTARITCGGNNIGSMNVHWYQQKPGQAPVLVVYDDSDRPSGIPEQFSGSNSGNTATLTISRVEAGDEADYYCQVWDSSSDHVVFGGGTKLTVL
B10: AB-010694 (antibody, V domains shown)
VH: QVQLQQWGAGLLKPSETLSLTCAVYGGSFSGYYWSWIRQPPGKGLEWIGEINHRGSINYNNYNPSLKSRVTISVDTSKNQFSLKLSSVTAADTAVYYCAKPLRPHCTNGVCYSGDAFDIWGQGTMVTVAS
VL: SYVLTQPPSVSVAPGQTARITCGGNNIGYMNVHWYQQKPGQAPVLVVYDDSDRPSGIPERFSGSNSGNTATLTISRVEAGDEADYYCQVWDSSSDHVVFGGGTKLTVL
B11: AB-010666 (antibody, V domains shown)
VH: QVQLQQWGAGLLKPSETLSLTCAVYGGSFSDYYWSWIRQPPGKGLEWIGEINHRGSINYNNYNPSLKSRVTISVDTSKNQFSLKLSSVTAADTAVYYCAKPLRPHCTNGVCYSGDAFDIWGQGTMVTVAS
VL: SYVLTQPPSVSVAPGQTARITCGGNNIGYMNVHWYQQKPGQAPVLVVYDDSDRPSGIPEQFSGSNSGNTATLTISRVEAGDEADYYCQVWDSSSDHVVFGGGTKLTVL
B12: AB-010664 (antibody, V domains shown)
VH: QVQLQQWGAGLLKPSETLSLTCAVYGGSFSDYYWSWIRQPPGKGLEWIGEINHRGSINYNNYNPSLKSRVTISVDTSKNQFSLKLSSVTAADTAVYYCAKPLRPHCTNGVCYSGDAFDIWGQGTMVTVAS
VL: SYVLTQPPSVSVAPGQTARITCRGNNIGSKNVHWYQQKPGQAPVLVVYDDSDRPSGIPEQFSGSNSGNTATLTISRVEAGDEADYYCQVWDHSSDHVVFGGGTKLTVL
B13: AB-010696 (antibody, V domains shown)
VH: QVQLQQWGAGLLKPSETLSLTCAVYGGSFSGYYWSWIRQPPGKGLEWIGEINHRGSINYNNYNPSLKSRVTISVDTSKNQFSLKLSSVTAADTAVYYCAKPLRPHCINGVCYSGDAFDIWGQGTMVTVAS
VL: SYVLTQPPSVSVAPGQTARITCGGNNIGSMNVHWYQQKPGQAPVLVVYDDSDRPSGIPERFSGSNSGNTATLTISRVEAGDEADYYCQVWDSSSDHVVFGGGTKLTVL
B14: AB-010695 (antibody, V domains shown)
VH: QVQLQQWGAGLLKPSETLSLTCAVYGGSFSGYYWSWIRQPPGKGLEWIGEINHRGSINYNNYNPSLKSRVTISVDTSKNQFSLKLSSVTAADTAVYYCAKPLRPHCTNGVCYSGDAFDIWGQGTMVTVAS
VL: SYVLTQPPSVSVAPGQTARITCGGNNIGYKNVHWYQQKPGQAPVLVVYDDSDRPSGIPERFSGSNSGNTATLTISRVEAGDEADYYCQVWDHSSDHVVFGGGTKLTVL
B15: AB-010702 (antibody, V domains shown)
VH: QVQLQQWGAGLLKPSETLSLTCAVYGGSFSGYYWSWIRQPPGKGLEWIGEINHRGSINYNNYNPSLKSRVTISVDTSKNQFSLKLSSVTAADTAVYYCAKPLRPHCTNGVCYSGDAFDIWGQGTMVTVAS
VL: SYVLTQPPSVSVAPGQTARITCGGNNIGYKNVHWYQQKPGQAPVLVVYDDSDRPSGIPERFSGSNSGNTATLTISRVEAGDEADYYCQVWDSESDHVVFGGGTKLTVL
B16: AB-010669 (antibody, V domains shown)
VH: QVQLQQWGAGLLKPSETLSLTCAVYGGSFSDYYWSWIRQPPGKGLEWIGEINHRGSINYNNYNPSLKSRVTISVDTSKNQFSLKLSSVTAADTAVYYCAKPLRPHCTNGVCYSGDAFDIWGQGTMVTVAS
VL: SYVLTQPPSVSVAPGQTARITCGGNNIGSMNVHWYQQKPGQAPVLVVYDDSDRPSGIPEQFSGSNSGNTATLTISRVEAGDEADYYCQVWDHSSDHVVFGGGTKLTVL
B17: AB-010701 (antibody, V domains shown)
VH: QVQLQQWGAGLLKPSETLSLTCAVYGGSFSGYYWSWIRQPPGKGLEWIGEINHRGSINYNNYNPSLKSRVTISVDTSKNQFSLKLSSVTAADTAVYYCAKPLRPHCTNGVCYSGDAFDIWGQGTMVTVAS
VL: SYVLTQPPSVSVAPGQTARITCGGNNIGSKNVHWYQQKPGQAPVLVVYDDSDRPSGIPERFSGSNSGNTATLTISRVEAGDEADYYCQVWDSESDHVVFGGGTKLTVL
B18: AB-010700 (antibody, V domains shown)
VH: QVQLQQWGAGLLKPSETLSLTCAVYGGSFSGYYWSWIRQPPGKGLEWIGEINHRGSINYNNYNPSLKSRVTISVDTSKNQFSLKLSSVTAADTAVYYCAKPLRPHCTNGVCYSGDAFDIWGQGTMVTVAS
VL: SYVLTQPPSVSVAPGQTARITCGGNNIGSKNVHWYQQKPGQAPVLVVYDDSDRPSGIPERFSGSNSGNTATLTISRVEAGDEADYYCQVWDSRSDHVVFGGGTKLTVL
B19: AB-010671 (antibody, V domains shown)
VH: QVQLQQWGAGLLKPSETLSLTCAVYGGSFSDYYWSWIRQPPGKGLEWIGEINHRGSINYNNYNPSLKSRVTISVDTSKNQFSLKLSSVTAADTAVYYCAKPLRPHCINGVCYSGDAFDIWGQGTMVTVAS
VL: SYVLTQPPSVSVAPGQTARITCGGNNIGYKNVHWYQQKPGQAPVLVVYDDSDRPSGIPEQFSGSNSGNTATLTISRVEAGDEADYYCQVWDHSSDHVVFGGGTKLTVL
B20: AB-010698 (antibody, V domains shown)
VH: QVQLQQWGAGLLKPSETLSLTCAVYGGSFSGYYWSWIRQPPGKGLEWIGEINHRGSINYNNYNPSLKSRVTISVDTSKNQFSLKLSSVTAADTAVYYCAKPLRPHCINGVCYSGDAFDIWGQGTMVTVAS
VL: SYVLTQPPSVSVAPGQTARITCGGNNIGSKNVHWYQQKPGQAPVLVVYDDSDRPSGIPERFSGSNSGNTATLTISRVEAGDEADYYCQVWDHSSDHVVFGGGTKLTVL

molecular target: Human EphA2 (ephrin receptor A2) on cells (human, UniProt P29317 25-976); assay: cell-based or functional assay
Sequence (P29317 25-976): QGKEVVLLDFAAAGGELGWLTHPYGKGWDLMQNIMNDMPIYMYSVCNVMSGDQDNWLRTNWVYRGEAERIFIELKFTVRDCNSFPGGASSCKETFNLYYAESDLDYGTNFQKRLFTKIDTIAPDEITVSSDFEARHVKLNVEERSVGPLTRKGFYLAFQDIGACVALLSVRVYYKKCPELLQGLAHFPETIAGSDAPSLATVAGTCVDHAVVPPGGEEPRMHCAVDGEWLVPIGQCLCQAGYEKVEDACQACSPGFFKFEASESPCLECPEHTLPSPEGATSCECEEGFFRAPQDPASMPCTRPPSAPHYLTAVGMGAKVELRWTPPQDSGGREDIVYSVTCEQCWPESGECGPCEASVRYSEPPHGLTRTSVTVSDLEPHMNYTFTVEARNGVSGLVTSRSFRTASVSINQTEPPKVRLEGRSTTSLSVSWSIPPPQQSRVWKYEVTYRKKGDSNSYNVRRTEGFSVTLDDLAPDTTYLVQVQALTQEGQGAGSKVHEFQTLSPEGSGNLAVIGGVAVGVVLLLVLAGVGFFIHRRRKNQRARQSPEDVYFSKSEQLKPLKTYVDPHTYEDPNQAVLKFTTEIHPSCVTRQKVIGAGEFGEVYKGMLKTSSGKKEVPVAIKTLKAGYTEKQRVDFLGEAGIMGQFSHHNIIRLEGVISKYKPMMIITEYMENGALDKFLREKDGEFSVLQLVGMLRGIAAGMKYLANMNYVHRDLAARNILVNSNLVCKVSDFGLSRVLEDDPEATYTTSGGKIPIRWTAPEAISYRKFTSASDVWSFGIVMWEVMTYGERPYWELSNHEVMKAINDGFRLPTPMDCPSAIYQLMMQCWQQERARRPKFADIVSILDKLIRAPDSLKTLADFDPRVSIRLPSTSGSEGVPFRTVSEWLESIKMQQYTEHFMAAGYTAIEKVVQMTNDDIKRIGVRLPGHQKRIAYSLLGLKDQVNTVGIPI

Going from B1 to B2, the “ADCC - EC50 (nM), Trial 1, A549” value falls from 0.15 nM to less than 0.03 nM.

B3 and B4 are within 1.5-fold of each other in “ADCC - EC50 (nM), Trial 1, A549” value: 0.36 nM for the first, 0.3 nM for the second.

Going from B5 to B6, the “ADCC - EC50 (nM), Trial 1, A549” value rises from 0.57 nM to 4.7 nM (8.2-fold).

Going from B7 to B8, the “ADCC - EC50 (nM), Trial 1, A549” value rises from roughly 0.23 nM to 5.7 nM (25-fold).

Compared with B9, B10 is 26-fold lower in “ADCC - EC50 (nM), Trial 1, A549” value: 3.7 nM for the first, 0.14 nM for the second.

Compared with B11, B12 is 2.8-fold higher in “ADCC - EC50 (nM), Trial 1, A549” value: roughly 0.19 nM for the first, 0.54 nM for the second.

First: B13
Second: B14
The “ADCC - EC50 (nM), Trial 1, A549” value of the first is 90-fold higher: 1.9 nM for the first, roughly 0.021 nM for the second.

Going from B15 to B16, the “ADCC - EC50 (nM), Trial 1, A549” value rises from 0.065 nM to 0.44 nM (6.8-fold).

First: B17
Second: B18
The “ADCC - EC50 (nM), Trial 1, A549” value of the first is 3.2-fold lower: 3 nM for the first, 9.5 nM for the second.

Going from B19 to B20, the “ADCC - EC50 (nM), Trial 1, A549” value rises from less than 0.03 nM to 0.23 nM.

First: B2
Second: B7
The “ADCC - EC50 (nM), Trial 2, A549” value of the first is 12-fold lower: 0.012 nM for the first, 0.14 nM for the second.

Going from B11 to B14, the “ADCC - EC50 (nM), Trial 2, A549” value falls from 0.16 nM to 0.0096 nM (17-fold).

With B19 the “ADCC - EC50 (nM), Trial 2, A549” value was 0.0064 nM.
